Key:
[1] = molecular target: PptA, phosin (polyP-targeting protein) from Streptomyces chartreusis (Streptomyces chartreusis); assay: SAXS
[2] = molecular target: PptA, phosin (polyP-targeting protein) from Streptomyces chartreusis (Streptomyces chartreusis); assay: SEC

PptA, phosin (polyP-targeting protein) from Streptomyces chartreusis (natural protein)
stoichiometry N [1]: 2 | stoichiometry N [2]: 2

— PMC6771595
